Results: the supplement of paper PMC7125110
± gives the standard error. For some assays here: Variants at the floor of the assay were thinned out.

B1: glmS ribozyme (parent)
chain: AUAAAAGCGCCAGAACUACAGAAAUGUAGUUGACGAGGAGGAGGUUUAUCGAAUUUUCGGCGGAUGCCUCCAAA

How the values were obtained:
Details in all cases: with glucosamine-6-phosphate
glucosamine-6-phosphate [1] = variants of: B1; experiment: kcat; higher = faster cleavage; RNA array
Procedure, shortened: (§1)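 The measurements used barcoded ribozyme variants on sequenced MiSeq chips, transcribed in situ by E. coli RNA polymerase and tracked at 37 °C with a hybridised Cy3 probe. Glucosamine-6-phosphate, 40 μM to 10 mM in HEPES/KCl/Mg(OAc)2 buffer, was flowed in while tiles were imaged over ~14 h. Baseline-normalised signals, also normalised to non-cleaving reference variants, gave per-tile medians that were fit to one- or two-exponential decays for kobs. kcat and KM resulted from weighted Michaelis–Menten fits across concentrations.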

glucosamine-6-phosphate [2] = variants of: B1; experiment: KM; higher = weaker cofactor use; RNA array
Procedure, shortened: as §1

glucosamine-6-phosphate [3] = variants of: B1; experiment: self-cleavage kobs at 2500 uM GlcN6P; higher = faster cleavage; RNA array
Procedure, shortened: as §1

glucosamine-6-phosphate [4] = variants of: B1; experiment: self-cleavage kobs at 10000 uM GlcN6P; higher = faster cleavage; RNA array
Procedure, shortened: as §1

glucosamine-6-phosphate [5] = variants of: B1; experiment: self-cleavage kobs at 640 uM GlcN6P; higher = faster cleavage; RNA array
Procedure, shortened: as §1

glucosamine-6-phosphate [6] = variants of: B1; experiment: self-cleavage kobs at 160 uM GlcN6P; higher = faster cleavage; RNA array
Procedure, shortened: as §1

glucosamine-6-phosphate [7] = variants of: B1; experiment: self-cleavage kobs at 40 uM GlcN6P; higher = faster cleavage; RNA array
Procedure, shortened: as §1

| Variant | kcat (glucosamine-6-phosphate [1]) | KM (glucosamine-6-phosphate [2]) | self-cleavage kobs at 2500 uM GlcN6P (glucosamine-6-phosphate [3]) | self-cleavage kobs at 10000 uM GlcN6P (glucosamine-6-phosphate [4]) | self-cleavage kobs at 640 uM GlcN6P (glucosamine-6-phosphate [5]) | self-cleavage kobs at 160 uM GlcN6P (glucosamine-6-phosphate [6]) | self-cleavage kobs at 40 uM GlcN6P (glucosamine-6-phosphate [7]) |
| --- | --- | --- | --- | --- | --- | --- | --- |
| A33U U55A | 0.000138 ± 2.3e-05 s⁻¹ | 2.73 ± 1.2 mM | 7.49e-05 ± 6.9e-06 s⁻¹ | 0.000105 ± 7.9e-06 s⁻¹ |  |  |  |
| U31G A52G | 0.000431 ± 4.6e-05 s⁻¹ | 2.82 ± 0.53 mM | 0.000178 ± 3.1e-05 s⁻¹ | 0.000352 ± 4.6e-05 s⁻¹ | 8.36e-05 ± 1.2e-05 s⁻¹ |  |  |
| G32A C50U C70A | 3.48e-05 ± 1.3e-05 s⁻¹ |  | 5.7e-05 ± 1.9e-05 s⁻¹ |  |  |  |  |
| G32U C71G | 0.000107 ± 7.3e-06 s⁻¹ | 0.741 ± 0.28 mM | 7.51e-05 ± 9.8e-06 s⁻¹ | 0.000102 ± 8.2e-06 s⁻¹ | 6.13e-05 ± 1.6e-05 s⁻¹ |  |  |
| G32U C71U | 0.00136 ± 0.0003 s⁻¹ | 5.54 ± 1.7 mM | 0.00037 ± 3.3e-05 s⁻¹ | 0.000927 ± 7.7e-05 s⁻¹ | 0.000146 ± 1.1e-05 s⁻¹ | 6.14e-05 ± 1.3e-05 s⁻¹ |  |
| G32A A64G | 0.00438 ± 0.00041 s⁻¹ | 6.2 ± 0.82 mM | 0.00144 ± 0.00035 s⁻¹ | 0.00267 ± 0.00027 s⁻¹ | 0.000433 ± 5.6e-05 s⁻¹ | 0.000104 ± 1.8e-05 s⁻¹ | 2.33e-05 ± 9.5e-06 s⁻¹ |
| A33C U46A | 3.08e-05 ± 7.5e-06 s⁻¹ |  | 3.48e-05 ± 1.7e-05 s⁻¹ |  |  | < 1e-05 s⁻¹ |  |
| G32C A53U | 0.000101 ± 5.9e-06 s⁻¹ | 7.51 ± 0.93 mM | 2.59e-05 ± 6.8e-06 s⁻¹ | 5.79e-05 ± 5e-06 s⁻¹ |  | < 1e-05 s⁻¹ | < 1e-05 s⁻¹ |
| G32C A53G | 0.000158 ± 4.6e-06 s⁻¹ | 3.34 ± 0.2 mM | 6.68e-05 ± 8.8e-06 s⁻¹ | 0.000119 ± 1.5e-05 s⁻¹ | 2.67e-05 ± 9.1e-06 s⁻¹ |  |  |
| G32C A53C | 3.63e-05 ± 2.4e-06 s⁻¹ |  |  |  | < 1e-05 s⁻¹ | < 1e-05 s⁻¹ | < 1e-05 s⁻¹ |
| G32U U55A | 0.00193 ± 0.00061 s⁻¹ | 9.31 ± 4.5 mM | 0.000332 ± 5.9e-05 s⁻¹ | 0.00102 ± 8.2e-05 s⁻¹ | 0.000132 ± 2e-05 s⁻¹ | 4.22e-05 ± 1.4e-05 s⁻¹ | 2.84e-05 ± 1e-05 s⁻¹ |
| A33C G38U | < 1e-05 s⁻¹ |  |  | < 1e-05 s⁻¹ | < 1e-05 s⁻¹ | < 1e-05 s⁻¹ | < 1e-05 s⁻¹ |
| A33G G59U C68A C71A | 2.2e-05 ± 6.5e-06 s⁻¹ |  |  |  |  |  |  |
| A33C C58G | 1.09e-05 ± 3.4e-06 s⁻¹ |  |  |  |  |  |  |
| A33G U69A | 3.15e-05 ± 1.4e-05 s⁻¹ |  |  |  |  | 4.13e-05 ± 1.5e-05 s⁻¹ |  |
| A33U C71U | 0.000125 ± 1.3e-05 s⁻¹ | 2.84 ± 0.69 mM | 5.58e-05 ± 5.4e-06 s⁻¹ | 0.0001 ± 9.1e-06 s⁻¹ | 3.01e-05 ± 7.2e-06 s⁻¹ |  |  |
| A36C C50U | < 1e-05 s⁻¹ |  |  |  |  |  | < 1e-05 s⁻¹ |
| U31C U55C | 0.00793 ± 0.00044 s⁻¹ | 3.75 ± 0.3 mM | 0.00284 ± 0.00079 s⁻¹ | 0.00585 ± 0.00073 s⁻¹ | 0.00116 ± 0.00021 s⁻¹ | 0.000317 ± 6.4e-05 s⁻¹ | 8.92e-05 ± 2.1e-05 s⁻¹ |

| Variant | kcat (glucosamine-6-phosphate [1]) | KM (glucosamine-6-phosphate [2]) | self-cleavage kobs at 2500 uM GlcN6P (glucosamine-6-phosphate [3]) | self-cleavage kobs at 10000 uM GlcN6P (glucosamine-6-phosphate [4]) | self-cleavage kobs at 640 uM GlcN6P (glucosamine-6-phosphate [5]) | self-cleavage kobs at 160 uM GlcN6P (glucosamine-6-phosphate [6]) | self-cleavage kobs at 40 uM GlcN6P (glucosamine-6-phosphate [7]) |
| --- | --- | --- | --- | --- | --- | --- | --- |
| U31C U55G | 0.0059 ± 0.0019 s⁻¹ | 2.75 ± 1.2 mM | 0.0022 ± 0.00033 s⁻¹ | 0.00547 ± 0.00061 s⁻¹ | 0.00104 ± 0.00018 s⁻¹ | 0.000291 ± 3.8e-05 s⁻¹ | 0.000126 ± 1.5e-05 s⁻¹ |
| G32A G60U | < 1e-05 s⁻¹ |  |  | < 1e-05 s⁻¹ |  | < 1e-05 s⁻¹ |  |
| U31C U57A | 2.49e-05 ± 2.1e-06 s⁻¹ |  | 2.32e-05 ± 9.8e-06 s⁻¹ |  |  |  |  |
| A33U G59U | < 1e-05 s⁻¹ |  | < 1e-05 s⁻¹ |  | < 1e-05 s⁻¹ |  | < 1e-05 s⁻¹ |
| U31G C34A G37U C67U | 3.45e-05 ± 1.2e-05 s⁻¹ |  |  |  |  |  |  |
| G32U U45A | 0.00202 ± 0.00071 s⁻¹ | 3.44 ± 1.7 mM | 0.000762 ± 0.00034 s⁻¹ | 0.00155 ± 0.0003 s⁻¹ | 0.000279 ± 6.8e-05 s⁻¹ | 9.56e-05 ± 2.1e-05 s⁻¹ | 0.000103 ± 3.9e-05 s⁻¹ |
| A33U G41A U54G | 3.66e-05 ± 1.4e-06 s⁻¹ | 2.72 ± 0.36 mM |  | 2.88e-05 ± 1.2e-05 s⁻¹ |  |  |  |
| A33U G40C | 5.14e-05 ± 7.9e-06 s⁻¹ |  |  |  |  |  |  |
| C34U U54C C68G | 1.64e-05 ± 4.9e-06 s⁻¹ |  |  |  |  |  |  |
| G32U G40U | 0.000265 ± 3e-05 s⁻¹ | 7.17 ± 1.3 mM | 7.08e-05 ± 7.2e-06 s⁻¹ | 0.000153 ± 1.6e-05 s⁻¹ | 1.68e-05 ± 7.3e-06 s⁻¹ |  |  |
| G32U G40C | 0.000104 ± 1.3e-05 s⁻¹ | 1.25 ± 0.52 mM | 7.79e-05 ± 1.1e-05 s⁻¹ | 8.66e-05 ± 1.3e-05 s⁻¹ | 2.66e-05 ± 1.3e-05 s⁻¹ |  |  |
| G32A C58A C68U | 0.000878 ± 0.00034 s⁻¹ |  | 0.000172 ± 7.4e-05 s⁻¹ | 0.000572 ± 0.00012 s⁻¹ | 8.56e-05 ± 1.4e-05 s⁻¹ |  |  |
| G32A U56C | 0.000235 ± 2.8e-05 s⁻¹ | 2.95 ± 0.67 mM | 9.95e-05 ± 1.6e-05 s⁻¹ | 0.000191 ± 3.1e-05 s⁻¹ | 4.72e-05 ± 1e-05 s⁻¹ |  |  |
| G32A U56A | 0.000939 ± 0.0002 s⁻¹ | 5.36 ± 1.6 mM | 0.000295 ± 4.3e-05 s⁻¹ | 0.000619 ± 9.9e-05 s⁻¹ | 9.47e-05 ± 1.5e-05 s⁻¹ | 4.57e-05 ± 1.5e-05 s⁻¹ |  |
| A33U G66U | 1.11e-05 ± 1.2e-06 s⁻¹ |  |  |  |  | < 1e-05 s⁻¹ |  |
| C34G G60U | < 1e-05 s⁻¹ |  | < 1e-05 s⁻¹ |  |  |  | < 1e-05 s⁻¹ |
| U31G A53C | 0.00293 ± 0.00056 s⁻¹ | 2.5 ± 0.77 mM | 0.00165 ± 0.00028 s⁻¹ | 0.00219 ± 0.00037 s⁻¹ | 0.000646 ± 0.00015 s⁻¹ | 0.000223 ± 5.6e-05 s⁻¹ | 3.19e-05 ± 1.2e-05 s⁻¹ |
